# Test results published in patent US20100310542A1, “Pharmaceutical Compositions for treating wouds and related methods” (HEALOR LTD., priority 2007, published 2010).
# B1: visfatin: murine visfatin (ALEXIS), adipocytokine that functions as an insulin analog (protein, UniProt Q99KQ4 1-491, looked up)
# Nicotinamide …: MNAAAEAEFNILLATDSYKVTHYKQYPPNTSKVYSYFECREKKTENSKVRKVKYEETVFYGLQYILNKYLKGKVVTKEKIQEAKEVYREHFQDDVFNERGWNYILEKYDGHLPIEVKAVPEGSVIPRGNVLFTVENTDPECYWLTNWIETILVQSWYPITVATNSREQKKILAKYLLETSGNLDGLEYKLHDFGYRGVSSQETAGIGASAHLVNFKGTDTVAGIALIKKYYGTKDPVPGYSVPAAEHSTITAWGKDHEKDAFEHIVTQFSSVPVSVVSDSYDIYNACEKIWGEDLRHLIVSRSTEAPLIIRPDSGNPLDTVLKVLDILGKKFPVTENSKGYKLLPPYLRVIQGDGVDINTLQEIVEGMKQKKWSIENVSFGSGGALLQKLTRDLLNCSFKCSYVVTNGLGVNVFKDPVADPNKRSKKGRLSLHRTPAGNFVTLEEGKGDLEEYGHDLLHTVFKNGKVTKSYSFDEVRKNAQLNIEQDVAPH
# Test system: keratin 1
# Experiment: keratin 1 expression by Western blot in keratinocytes
# Type: cell-based, mice
# Conditions: visfatin 0.0001 μg/ml or L-alpha 100 ng/ml, 24 hours after calcium-induced differentiation
# Text: Medium A and B are both EMEM eagle's minimal essential medium from Biological Industries (Israel) containing 8% CHELEX™ treated fetal bovine serum. CHELEX™ is a strong chelator which binds free Ca^2+ and Mg^2+ ions to prevent these ions from being bioavailable to the cultured cells.
# Primary skin keratinocytes isolated from the tails of adult mice (7-10 months up to 2 years) were maintained in medium A (MEM) as described above. After 5 days in (medium A), the growth medium in half of the cultured plates was replaced with medium B (as described above)
# Next visfatin or L-alpha were each individually added to cells cultured in medium A (FIG. 19A) and cells cultured in medium B (FIG. 19B) as indicated in FIG. 19. The final concentration in the culture medium of visfatin was 0.0001 μg/ml visfatin. The final concentration in the culture medium of L-alpha was 100 ng/ml.
# Cell differentiation was induced by elevating calcium from 0.05 mM to 0.12 mM as described above. Twenty-four (24) hours after differentiation cells were harvested and Western Blot analysis was performed. […] Keratin 1 expression was then quantified using standard densitometric methods […]
# Cell differentiation was then induced by elevating calcium levels in the culture medium from 0.05 mM to 0.12 mM. […] Expression was assessed using standard Western blotting and densitometry techniques.
molecule,measurement,setting,value
B1,expression of keratin 1,medium A (no KCl),decreased relative to the control sample
same,expression of keratin 1,medium B (KCl 0.4 mg/ml),not significantly altered
